From article PMC2386976

Test system: EIAV Rev (ERev), MBP-ERev fusion (Equine infectious anemia virus (EIAV))
Experiment: filter binding
Details: Footprinting: 10 mM HEPES-KOH pH 7.5, 100 mM KCl, 1 mM MgCl2, 0.5 mM EDTA, complex formed 20 min on ice, probed 10 min at room temperature

Question: Which Kd does the source give for “ERRE_RBR12 (ERRE, EIAV RRE-1, contains RBR-1 and RBR-2)” here?
Answer: 19 nM
